Reference: US20140162952A1 (ONCOTHERAPY SCIENCE, published 2014)
Where two headings read alike, the source gives them in different places.

Columns and labels:
[1] = biological target: T1, HA-PHB2 (HA-tagged PHB2 construct) (human, UniProt Q99623 1-299, limits assumed); experiment: co-IP from COS-7 cells co-transfected with a Flag-ERAP1 construct and HA-PHB2; IP anti-Flag, IB anti-HA
T1 construct: Expressed by transfection in COS-7 or HEK293T cells; also called PHB2/REA construct; HA-tagged PHB2/REA (WT); not shown: HA tag

[2] = biological target: T1, HA-PHB2 (HA-tagged PHB2 construct); experiment: as above; remark: listed apart in the source
[3] = biological target: inherent PHB2/REA (prohibitin 2 / Repressor of Estrogen Activity) (human, UniProt Q99623 2-299, limits assumed); experiment: cell-based or functional assay
[4] = biological target: T1, HA-PHB2 (HA-tagged PHB2 construct); experiment: COS-7 co-transfection with the PHB2/REA construct, IP with anti-FLAG antibody, immunoblot
[5] = biological target: T1, HA-PHB2 (HA-tagged PHB2 construct); experiment: COS-7 co-transfection with the PHB2/REA construct, IP with anti-HA antibody, immunoblot
[6] = biological target: T1, HA-PHB2 (HA-tagged PHB2 construct); experiment: co-immunoprecipitation from COS-7 cells, IP anti-FLAG, blot anti-HA (second experiment)
[7] = biological target: T1, HA-PHB2 (HA-tagged PHB2 construct); experiment: COS-7 co-transfection with the PHB2/REA construct, IP and immunoblot

T1 sequence (Q99623 whole entry): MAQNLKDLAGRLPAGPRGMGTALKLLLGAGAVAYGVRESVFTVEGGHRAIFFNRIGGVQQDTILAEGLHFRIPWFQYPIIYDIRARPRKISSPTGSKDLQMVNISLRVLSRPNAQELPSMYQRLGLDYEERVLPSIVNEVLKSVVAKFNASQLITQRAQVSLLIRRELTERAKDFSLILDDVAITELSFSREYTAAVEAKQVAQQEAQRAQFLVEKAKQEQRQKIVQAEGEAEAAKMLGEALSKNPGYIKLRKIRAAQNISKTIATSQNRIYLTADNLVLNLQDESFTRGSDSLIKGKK
inherent PHB2/REA (prohibitin 2 / Repressor of Estrogen Activity), sequence (Q99623 2-299 limits assumed): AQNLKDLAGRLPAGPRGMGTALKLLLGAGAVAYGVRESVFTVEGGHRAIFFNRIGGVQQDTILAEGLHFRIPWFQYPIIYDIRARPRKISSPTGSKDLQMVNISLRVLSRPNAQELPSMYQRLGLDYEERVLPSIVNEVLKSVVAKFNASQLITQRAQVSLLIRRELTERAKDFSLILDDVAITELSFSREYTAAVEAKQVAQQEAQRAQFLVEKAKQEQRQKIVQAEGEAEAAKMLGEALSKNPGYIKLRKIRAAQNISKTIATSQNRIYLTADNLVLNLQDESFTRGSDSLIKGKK

B1: Flag-ERAP1 1-100 (other, not shown: small tags and cut ends)
chain: MEEILRKLQKEASGSKYKAIKESCTWALETLGGLDTIVKIPPHVLREKCLLPLQLALESKNVKLAQHALAGMQKLLSEERFVSMETDSDEKQLLNQILNA
notes: deletion construct
binding result [1]: no binding

B2: Flag-ERAP1 1-250 (other, not shown: small tags and cut ends)
chain: MEEILRKLQKEASGSKYKAIKESCTWALETLGGLDTIVKIPPHVLREKCLLPLQLALESKNVKLAQHALAGMQKLLSEERFVSMETDSDEKQLLNQILNAVKVTPSLNEDLQVEVMKVLLCITYTPTFDLNGSAVLKIAEVCIETYISSCHQRSINTAVRATLSQMLSDLTLQLRQRQENTIIENPDVPQDFGNQGSTVESLCDDVVSVLTVLCEKLQAAINDSQQLQLLYLECILSVLSSSSSSMHLHR
notes: deletion construct
binding result [1]: binds

B3: ERAP1 1468-2177 (Flag-ERAP1) (other, not shown: small tags and cut ends)
chain: CPRQHQPPTLDLLFELLRDVTKTPGPGFGIYAVVHLLLPVMSVWLRRSHKDHSYWDMASANFKHAIGLSCELVVEHIQSFLHSDIRYESMINTMLKDLFELLVACVAKPTETISRVGCSCIRYVLVTAGPVFTEEMWRLACCALQDAFSATLKPVKDLLGCFHSGTESFSGEGCQVRVAAPSSSPSAEAEYWRIRAMAQQVFMLDTQCSPKTPNNFDHAQSCQLIIELPPDEKPNGHTKKSVSFREIVVSLLSHQVLLQNLYDILLEEFVKGPSPGEEKTIQVPEAKLAGFLRYISMQNLAVIFDLLLDSYRTAREFDTSPGLKCLLKKVSGIGGAANLYRQSAMSFNIYFHALVCAVLTNQETITAEQVKKVLFEDDERSTDSSQQCSSEDEDIFEETAQVSPPRGKEKRQWRARMPLLSVQPVSNADWVWLVKRLHKLCMELCNNYIQMHLDLENCMEEPPIFKGDPFFILPSFQSESSTPSTGGFSGKETPSEDDRSQSREHMGESLSLKAGGGDLLLPPSPKVEKKDPSRKKEWWENAGNKIYTMAADKTISKLMTEYKKRKQQHNLSAFPKEVKVEKKGEPLGPRGQDSPLLQRPQHLMDQGQMRHSFSAGPELLRQDKRPRSGSTGSSLSVSVRDAEAQIQAWTNMVLTVLNQIQILPDQTFTALQPAVFPCISQLTCHVTDIRVRQAVREWLGRVGRVYDIIV
notes: deletion construct
binding result [2]: no binding

RRRRRRRRRRRQMLSDLTLQLRQR [ERAP1-peptide (11R-bound dominant negative peptide, ERAP1 165-177)]
IC50 of suppression effect for the cell proliferation in MCF-7 cells for 24 hours [3]: 2180 nM

B4: ERAP1 435-2177 (Flag-ERAP1) (other, not shown: small tags and cut ends)
chain: GALDELSQGKGLSEGQVQLLLLRLEELKDGAEWSRDSMEINEADFRWQRRVLSSEHTPWESGNERSLDISISVTTDTGQTTLEGELGQTTPEDHSGNHKNSLKSPAIPEGKETLSKVLETEAVDQPDVVQRSHTVPYPDITNFLSVDCRTRSYGSRYSESNFSVDDQDLSRTEFDSCDQYSMAAEKDSGRSDVSDIGSDNCSLADEEQTPRDCLGHRSLRTAALSLKLLKNQEADQHSARLFIQSLEGLLPRLLSLSNVEEVDTALQNFASTFCSGMMHSPGFDGNSSLSFQMLMNADSLYTAAHCALLLNLKLSHGDYYRKRPTLAPGVMKDFMKQVQTSGVLMVFSQAWIEELYHQVLDRNMLGEAGYWGSPEDNSLPLITMLTDIDGLESSAIGGQLMASAATESPFAQSRRIDDSTVAGVAFARYILVGCWKNLIDTLSTPLTGRMAGSSKGLAFILGAEGIKEQNQKERDAICMSLDGLRKAARLSCALGVAANCASALAQMAAASCVQEEKEEREAQEPSDAITQVKLKVEQKLEQIGKVQGVWLHTAHVLCMEAILSVGLEMGSHNPDCWPHVFRVCEYVGTLEHNHFSDGASQPPLTISQPQKATGSAGLLGDPECEGSPPEHSPEQGRSLSTAPVVQPLSIQDLVREGSRGRASDFRGGSLMSGSSAAKVVLTLSTQADRLFEDATDKLNLMALGGFLYQLKKASQSQLFHSVTDTVDYSLAMPGEVKSTQDRKSALHLFRLGNAMLRIVRSKARPLLHVMRCWSLVAPHLVEAACHKERHVSQKAVSFIHDILTEVLTDWNEPPHFHFNEALFRPFERIMQLELCDEDVQDQVVTSIGELVEVCSTQIQSGWRPLFSALETVHGGNKSEMKEYLVGDYSMGKGQAPVFDVFEAFLNTDNIQVFANAATSYIMCLMKFVKGLGEVDCKEIGDCAPAPGAPSTDLCLPALDYLRRCSQLLAKIYKMPLKPIFLSGRLAGLPRRLQEQSASSEDGIESVLSDFDDDTGLIEVWIILLEQLTAAVSNCPRQHQPPTLDLLFELLRDVTKTPGPGFGIYAVVHLLLPVMSVWLRRSHKDHSYWDMASANFKHAIGLSCELVVEHIQSFLHSDIRYESMINTMLKDLFELLVACVAKPTETISRVGCSCIRYVLVTAGPVFTEEMWRLACCALQDAFSATLKPVKDLLGCFHSGTESFSGEGCQVRVAAPSSSPSAEAEYWRIRAMAQQVFMLDTQCSPKTPNNFDHAQSCQLIIELPPDEKPNGHTKKSVSFREIVVSLLSHQVLLQNLYDILLEEFVKGPSPGEEKTIQVPEAKLAGFLRYISMQNLAVIFDLLLDSYRTAREFDTSPGLKCLLKKVSGIGGAANLYRQSAMSFNIYFHALVCAVLTNQETITAEQVKKVLFEDDERSTDSSQQCSSEDEDIFEETAQVSPPRGKEKRQWRARMPLLSVQPVSNADWVWLVKRLHKLCMELCNNYIQMHLDLENCMEEPPIFKGDPFFILPSFQSESSTPSTGGFSGKETPSEDDRSQSREHMGESLSLKAGGGDLLLPPSPKVEKKDPSRKKEWWENAGNKIYTMAADKTISKLMTEYKKRKQQHNLSAFPKEVKVEKKGEPLGPRGQDSPLLQRPQHLMDQGQMRHSFSAGPELLRQDKRPRSGSTGSSLSVSVRDAEAQIQAWTNMVLTVLNQIQILPDQTFTALQPAVFPCISQLTCHVTDIRVRQAVREWLGRVGRVYDIIV
binding result [2]: no binding

B5: ERAP1 alanine mutant of D169 (D169A) (other)
chain: MEEILRKLQKEASGSKYKAIKESCTWALETLGGLDTIVKIPPHVLREKCLLPLQLALESKNVKLAQHALAGMQKLLSEERFVSMETDSDEKQLLNQILNAVKVTPSLNEDLQVEVMKVLLCITYTPTFDLNGSAVLKIAEVCIETYISSCHQRSINTAVRATLSQMLSALTLQLRQRQENTIIENPDVPQDFGNQGSTVESLCDDVVSVLTVLCEKLQAAINDSQQLQLLYLECILSVLSSSSSSMHLHRRFTDLIWKNLCPALIVILGNPIHDKTITSAHTSSTSTSLESDSASPGVSDHGRGSGCSCTAPALSGPVARTIYYIAAELVRLVGSVDSMKPVLQSLYHRVLLYPPPQHRVEAIKIMKEILGSPQRLCDLAGPSSTESESRKRSISKRKSHLDLLKLIMDGMTEACIKGGIEACYAAVSCVCTLL
notes: also called D169 mutant construct; not shown: Flag tag
coprecipitation band, ratio when that with ERAP1 (1-434 aa) is designated as 100 [4]: 22%
coprecipitation band, ratio when that with ERAP1 (1-434 aa) is designated as 100 [5]: 0%
ratio of the coprecipitated band (ERAP1 1-434 = 100) [6]: 33

B6: ERAP1 alanine mutant of Q165 and D169 (Q165A, D169A) (other)
chain: MEEILRKLQKEASGSKYKAIKESCTWALETLGGLDTIVKIPPHVLREKCLLPLQLALESKNVKLAQHALAGMQKLLSEERFVSMETDSDEKQLLNQILNAVKVTPSLNEDLQVEVMKVLLCITYTPTFDLNGSAVLKIAEVCIETYISSCHQRSINTAVRATLSAMLSALTLQLRQRQENTIIENPDVPQDFGNQGSTVESLCDDVVSVLTVLCEKLQAAINDSQQLQLLYLECILSVLSSSSSSMHLHRRFTDLIWKNLCPALIVILGNPIHDKTITSAHTSSTSTSLESDSASPGVSDHGRGSGCSCTAPALSGPVARTIYYIAAELVRLVGSVDSMKPVLQSLYHRVLLYPPPQHRVEAIKIMKEILGSPQRLCDLAGPSSTESESRKRSISKRKSHLDLLKLIMDGMTEACIKGGIEACYAAVSCVCTLL
notes: not shown: Flag tag
coprecipitation band, ratio when that with ERAP1 (1-434 aa) is designated as 100 [7]: 12%

B7: ERAP1 alanine mutant of Q165 (Q165A) (other)
chain: MEEILRKLQKEASGSKYKAIKESCTWALETLGGLDTIVKIPPHVLREKCLLPLQLALESKNVKLAQHALAGMQKLLSEERFVSMETDSDEKQLLNQILNAVKVTPSLNEDLQVEVMKVLLCITYTPTFDLNGSAVLKIAEVCIETYISSCHQRSINTAVRATLSAMLSDLTLQLRQRQENTIIENPDVPQDFGNQGSTVESLCDDVVSVLTVLCEKLQAAINDSQQLQLLYLECILSVLSSSSSSMHLHRRFTDLIWKNLCPALIVILGNPIHDKTITSAHTSSTSTSLESDSASPGVSDHGRGSGCSCTAPALSGPVARTIYYIAAELVRLVGSVDSMKPVLQSLYHRVLLYPPPQHRVEAIKIMKEILGSPQRLCDLAGPSSTESESRKRSISKRKSHLDLLKLIMDGMTEACIKGGIEACYAAVSCVCTLL
notes: also called Q165 mutant construct; not shown: Flag tag
coprecipitation band, ratio when that with ERAP1 (1-434 aa) is designated as 100 [4]: 60%
coprecipitation band, ratio when that with ERAP1 (1-434 aa) is designated as 100 [5]: 24%
ratio of the coprecipitated band (ERAP1 1-434 = 100) [6]: 63
